Measured values from US20170342144A1 (Sanofi, published 2017).

T1: human TGFβ2 (human, UniProt P61812 303-414)
T1 construct: also called TGFβ2 homodimer
T1 sequence: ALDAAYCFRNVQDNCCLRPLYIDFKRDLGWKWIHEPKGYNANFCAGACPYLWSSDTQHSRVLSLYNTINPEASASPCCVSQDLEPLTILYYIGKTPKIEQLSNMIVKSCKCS

T2: human TGFβ3 (human, UniProt P10600 301-412)
T2 sequence: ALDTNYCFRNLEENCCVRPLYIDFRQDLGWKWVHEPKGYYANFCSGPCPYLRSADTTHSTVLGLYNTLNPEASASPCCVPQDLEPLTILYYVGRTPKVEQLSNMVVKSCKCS


Tests used:
human TGFβ1 [1] = target: T3, human TGFβ1 (human, UniProt P01137 279-390); assay: Biacore off-rate vs wt GC1008
T3 construct: also called TGFβ1 homodimer
T3 sequence (P01137 279-390 limits assumed): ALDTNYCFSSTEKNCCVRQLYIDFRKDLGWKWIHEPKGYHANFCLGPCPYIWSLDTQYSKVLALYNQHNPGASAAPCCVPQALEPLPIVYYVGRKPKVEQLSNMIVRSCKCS
Description: (§1) Plasmids encoding either the GC1008 heavy chain or light chain were used as a template in PCR-based mutagenesis reactions. Mutations to the encoding DNA were made to create 155 single amino acid substitutions of the encoded heavy chain amino acid sequence and one single amino acid substitution of the encoded light chain amino acid sequence. A QuikChange® Lightning Site-Directed Mutagenesis kit (Agilent Technologies, Santa Clara Calif.) was used according to the manufacturer's instructions to create DNA mutations using a set of forward and reverse primers, either designed for a specific amino acid or for all 20 amino acids with a degenerate codon (NNK). After sequencing confirmation, identified mutant DNA was paired with a wild-type light or heavy chain DNA for transfection into an Expi293F™ host cell suspension (Life Techonologies Corp., Grand Island, N.Y.). At 4 days post-transfection, conditioned media (1 mL) was harvested and purified using a 1 mL Protein A PhyTip® column (PhyNexus, Inc., San Jose, Calif.) and a PureSpeed™ 12-channel pipette (Rainin Instrument LLC, Oakland, Calif.). Purified variant antibody samples were analyzed in duplicate on a Biacore® 3000 (GE Healthcare) at 50 nM concentrations, using the 100 RU level TGFβ1, 2, and 3 immobilized surfaces. The off-rate (kd) of the variants was divided by the kd of the wild-type control to obtain the fold change in the kd. […] A heat map was generated to visualize the results. Variants that completely lost affinity for TGFβ were shown in red without numbers.

human TGFβ2 [2] = target: T1, human TGFβ2; assay: Biacore off-rate vs wt GC1008
Description: as §1

human TGFβ3 [3] = target: T2, human TGFβ3; assay: Biacore off-rate vs wt GC1008
Description: as §1

human TGFβ1 [4] = target: T3, human TGFβ1; assay: Biacore off-rate vs wt GC1008, 50 nM
Procedure, shortened: (§2)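 Surface plasmon resonance on a Biacore 3000 measured how fast purified antibody variants dissociated from TGFβ isoforms immobilized at about 100 RU. Variants carried single heavy- or light-chain substitutions and were produced by transient Expi293F transfection with Protein A cleanup. Samples at 50 nM were tested in duplicate, and each variant kd was divided by the wild-type control kd to give fold change.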

human TGFβ2 [5] = target: T1, human TGFβ2; assay: Biacore off-rate vs wt GC1008, 50 nM
Procedure, shortened: as §2

human TGFβ3 [6] = target: T2, human TGFβ3; assay: Biacore off-rate vs wt GC1008, 50 nM
Procedure, shortened: as §2

human TGFβ1 [7] = target: T3, human TGFβ1; assay: Biacore, 3.33-90 nM, 1:1 global fit, vs wt GC1008
Experimental: (§3) In FIG. 6C, seventeen mutants were selected and scaled up to produce sufficient amount of purified protein for KD (equilibrium constant=kd/ka) analysis by Biacore. Multiple concentrations (90, 30, 10 and 3.33 nM) were used in duplicate on the 150 RU level TGFβ1, 2, and 3 immobilized surfaces. KD was calculated using global curve fitting analysis for a 1-to-1 Langmuir binding model. The experimental data from all four concentrations were used for calculation except for I54N and I54R mutants, where only the top 2 concentrations were used. The fold changes in KD were compared to the fold changes in kd (off rate) presented in FIG. 6B, and a heat map was generated for visualization. Similar fold changes were observed from the two data sets, confirming the validity of using kd as a parameter for screening of 155 single mutants as shown in FIG. 6B.

human TGFβ2 [8] = target: T1, human TGFβ2; assay: Biacore, 3.33-90 nM, 1:1 global fit, vs wt GC1008
Experimental: as §3

human TGFβ3 [9] = target: T2, human TGFβ3; assay: Biacore, 3.33-90 nM, 1:1 global fit, vs wt GC1008
Experimental: as §3

Row | kd mutant/kd wt (human TGFβ1 [1]) | kd mutant/kd wt (human TGFβ2 [2]) | kd mutant/kd wt (human TGFβ3 [3]) | kd var/kd wt (human TGFβ1 [4]) | kd var/kd wt (human TGFβ2 [5]) | kd var/kd wt (human TGFβ3 [6]) | KD mutant/KD wt (human TGFβ1 [7]) | KD mutant/KD wt (human TGFβ2 [8]) | KD mutant/KD wt (human TGFβ3 [9]) | Binder
1 | 1 | 0.8 | 0.7 | 1 | 0.8 | 0.7 | 1 | 0.6 | 0.6 | D56R (antibody, V domains shown, GC1008 IgG4 variant) VH: QVQLVQSGAEVKKPGSSVKVSCKASGYTFSSNVISWVRQAPGQGLEWMGGVIPIVRIANYAQRFKGRVTITADESTSTTYMELSSLRSEDTAVYYCASTLGLVLDAMDYWGQGTLVTVSS VL: ETVLTQSPGTLSLSPGERATLSCRASQSLGSSYLAWYQQKPGQAPRLLIYGASSRAPGIPDRFSGSGSGTDFTLTISRLEPEDFAVYYCQQYADSPITFGQGTRLEIK
2 | 3 | 1.4 | 1.6 | 3 | 1.4 | 1.6 | 4.1 | 2.4 | 2.6 | I52L (antibody, V domains shown, GC1008 IgG4 variant) VH: QVQLVQSGAEVKKPGSSVKVSCKASGYTFSSNVISWVRQAPGQGLEWMGGVLPIVDIANYAQRFKGRVTITADESTSTTYMELSSLRSEDTAVYYCASTLGLVLDAMDYWGQGTLVTVSS VL: ETVLTQSPGTLSLSPGERATLSCRASQSLGSSYLAWYQQKPGQAPRLLIYGASSRAPGIPDRFSGSGSGTDFTLTISRLEPEDFAVYYCQQYADSPITFGQGTRLEIK
3 |  |  |  | 1.7 | 1.6 | 1.5 |  |  |  | Y27V (antibody, V domains shown, GC1008 IgG4 variant) VH: QVQLVQSGAEVKKPGSSVKVSCKASGVTFSSNVISWVRQAPGQGLEWMGGVIPIVDIANYAQRFKGRVTITADESTSTTYMELSSLRSEDTAVYYCASTLGLVLDAMDYWGQGTLVTVSS VL: ETVLTQSPGTLSLSPGERATLSCRASQSLGSSYLAWYQQKPGQAPRLLIYGASSRAPGIPDRFSGSGSGTDFTLTISRLEPEDFAVYYCQQYADSPITFGQGTRLEIK
4 | 0.8 | 0.3 | 0.3 | 0.8 | 0.3 | 0.3 | 0.9 | 0.5 | 0.6 | E74W (antibody, V domains shown, GC1008 IgG4 variant) VH: QVQLVQSGAEVKKPGSSVKVSCKASGYTFSSNVISWVRQAPGQGLEWMGGVIPIVDIANYAQRFKGRVTITADWSTSTTYMELSSLRSEDTAVYYCASTLGLVLDAMDYWGQGTLVTVSS VL: ETVLTQSPGTLSLSPGERATLSCRASQSLGSSYLAWYQQKPGQAPRLLIYGASSRAPGIPDRFSGSGSGTDFTLTISRLEPEDFAVYYCQQYADSPITFGQGTRLEIK
5 |  |  |  | 1.4 | 1.3 | 1.4 |  |  |  | Y27W (antibody, V domains shown, GC1008 IgG4 variant) VH: QVQLVQSGAEVKKPGSSVKVSCKASGWTFSSNVISWVRQAPGQGLEWMGGVIPIVDIANYAQRFKGRVTITADESTSTTYMELSSLRSEDTAVYYCASTLGLVLDAMDYWGQGTLVTVSS VL: ETVLTQSPGTLSLSPGERATLSCRASQSLGSSYLAWYQQKPGQAPRLLIYGASSRAPGIPDRFSGSGSGTDFTLTISRLEPEDFAVYYCQQYADSPITFGQGTRLEIK
6 |  |  |  | 2.3 | 1.5 | 1.7 |  |  |  | Y27R (antibody, V domains shown, GC1008 IgG4 variant) VH: QVQLVQSGAEVKKPGSSVKVSCKASGRTFSSNVISWVRQAPGQGLEWMGGVIPIVDIANYAQRFKGRVTITADESTSTTYMELSSLRSEDTAVYYCASTLGLVLDAMDYWGQGTLVTVSS VL: ETVLTQSPGTLSLSPGERATLSCRASQSLGSSYLAWYQQKPGQAPRLLIYGASSRAPGIPDRFSGSGSGTDFTLTISRLEPEDFAVYYCQQYADSPITFGQGTRLEIK
7 |  |  |  | 1.5 | 1.4 | 1.4 |  |  |  | Y27Q (antibody, V domains shown, GC1008 IgG4 variant) VH: QVQLVQSGAEVKKPGSSVKVSCKASGQTFSSNVISWVRQAPGQGLEWMGGVIPIVDIANYAQRFKGRVTITADESTSTTYMELSSLRSEDTAVYYCASTLGLVLDAMDYWGQGTLVTVSS VL: ETVLTQSPGTLSLSPGERATLSCRASQSLGSSYLAWYQQKPGQAPRLLIYGASSRAPGIPDRFSGSGSGTDFTLTISRLEPEDFAVYYCQQYADSPITFGQGTRLEIK
8 | 2 | 1 | 0.7 | 2 | 1 | 0.7 | 2.1 | 1.3 | 0.8 | E74R (antibody, V domains shown, GC1008 IgG4 variant) VH: QVQLVQSGAEVKKPGSSVKVSCKASGYTFSSNVISWVRQAPGQGLEWMGGVIPIVDIANYAQRFKGRVTITADRSTSTTYMELSSLRSEDTAVYYCASTLGLVLDAMDYWGQGTLVTVSS VL: ETVLTQSPGTLSLSPGERATLSCRASQSLGSSYLAWYQQKPGQAPRLLIYGASSRAPGIPDRFSGSGSGTDFTLTISRLEPEDFAVYYCQQYADSPITFGQGTRLEIK
9 |  |  |  | 1.6 | 1.5 | 1.6 |  |  |  | Y27S (antibody, V domains shown, GC1008 IgG4 variant) VH: QVQLVQSGAEVKKPGSSVKVSCKASGSTFSSNVISWVRQAPGQGLEWMGGVIPIVDIANYAQRFKGRVTITADESTSTTYMELSSLRSEDTAVYYCASTLGLVLDAMDYWGQGTLVTVSS VL: ETVLTQSPGTLSLSPGERATLSCRASQSLGSSYLAWYQQKPGQAPRLLIYGASSRAPGIPDRFSGSGSGTDFTLTISRLEPEDFAVYYCQQYADSPITFGQGTRLEIK
10 | 0.8 | 0.6 | 0.1 | 0.8 | 0.6 | 0.1 | 0.9 | 0.7 | 0.3 | E74L (antibody, V domains shown, GC1008 IgG4 variant) VH: QVQLVQSGAEVKKPGSSVKVSCKASGYTFSSNVISWVRQAPGQGLEWMGGVIPIVDIANYAQRFKGRVTITADLSTSTTYMELSSLRSEDTAVYYCASTLGLVLDAMDYWGQGTLVTVSS VL: ETVLTQSPGTLSLSPGERATLSCRASQSLGSSYLAWYQQKPGQAPRLLIYGASSRAPGIPDRFSGSGSGTDFTLTISRLEPEDFAVYYCQQYADSPITFGQGTRLEIK
11 |  |  |  | 1.4 | 1.4 | 1.5 |  |  |  | Y27T (antibody, V domains shown, GC1008 IgG4 variant) VH: QVQLVQSGAEVKKPGSSVKVSCKASGTTFSSNVISWVRQAPGQGLEWMGGVIPIVDIANYAQRFKGRVTITADESTSTTYMELSSLRSEDTAVYYCASTLGLVLDAMDYWGQGTLVTVSS VL: ETVLTQSPGTLSLSPGERATLSCRASQSLGSSYLAWYQQKPGQAPRLLIYGASSRAPGIPDRFSGSGSGTDFTLTISRLEPEDFAVYYCQQYADSPITFGQGTRLEIK
